Residue numbers refer to the chain shown, from its start. “And” between values parts separate entries of the source, which are not always exact repeats. Identical values can stand only once. Like-named read-outs stand apart in the source and are kept apart here.
B1: PRO885 (bispecific antibody)
chain: DIQMTQSPSSLSASVGDRVTITCQASQSINDYLAWYQQKPGKAPKLLIYKASTLASGVPSRFSGSGSGTDFTLTISSLQPEDFATYYCQQGYIITDIDNVFGTGTKVTVLGGGGGSQVQLQESGPGLVKPSETLSLTCKVSGFSFSNSYWICWIRQPPGKGLEWIGCTFVGSSDSTYYANWAKGRVTISVDSSKNQFSLKLSSVTAADTAVYYCARHPSDAVYGYANNLWGQGTLVTVSSGGGGSGGGGSGGGGSGGGGSIQMTQSPSSLSASVGDRVTITCQASQSINNVLAWYQQKPGKAPKLLIYRASTLASGVPSRFSGSGSGTDFTLTISSLQPEDFATYYCQSSYGNYGDFGTGTKVTVLGGGGGSQVQLQESGPGLVKPSETLSLTCKVSGFSFSSGYDMCWIRQPPGKGLEWIGCVVAGSVDITYYASWAKGRVTISVDSSKNQFSLKLSSVTAADTAVYYCARKDAYSDAFNLWGQGTLVTVSS
B2: PRO1124 (bispecific antibody)
chain: B1 chain with V140A, I154V, V190K, F197V, Y213F, I261L, A302P
B3: PRO1126 (bispecific antibody)
chain: B1 chain with I2F, M4L, A43S, V374S, V396A, I410V, G422A, V446K, F453V, Y469F
B4: PRO997 (scFv)
scFv: DIQMTQSPSSLSASVGDRVTITCQASQSIGTYLAWYQQKPGKAPKLLIYRAFILASGVPSRFSGSGSGTDFTLTISSLQPEDFATYYCQSNFYSDSTTIGPNAFGTGTKVTVLGGGGGSGGGGSGGGGSGGGGSQVQLQESGPGLVKPSETLSLTCKVSGFSFNSDYWIYWIRQPPGKGLEWIGSIYGGSSGNTQYASWAQGRVTISVDSSKNQFSLKLSSVTAADTAVYYCARGYVDYGGATDLWGQGTLVTVSS
notes: also called 37-20-B03sc01; PRO977
B5: Urelumab (antibody, V domains shown)
VH: QVQLQQWGAGLLKPSETLSLTCAVYGGSFSGYYWSWIRQSPEKGLEWIGEINHGGYVTYNPSLESRVTISVDTSKNQFSLKLSSVTAADTAVYYCARDYGPGNYDWYFDLWGRGTLVTVSS
VL: EIVLTQSPATLSLSPGERATLSCRASQSVSSYLAWYQQKPGQAPRLLIYDASNRATGIPARFSGSGSGTDFTLTISSLEPEDFAVYYCQQRSNWPPALTFGGGTKVEIK
B6: PRO951 (bispecific antibody)
chain: DIQMTQSPSSLSASVGDRVTITCQASQSINDYLAWYQQKPGKAPKLLIYKASTLASGVPSRFSGSGSGTDFTLTISSLQPEDFATYYCQQGYIITDIDNVFGTGTKVTVLGGGGGSEVQLVESGGGLVQPGGSLRLSCAASGFSFNNDYDMCWVRQAPGKGLEWIGCIDTGDGSTYYASWAKGRFTISRDNSKNTVYLQMNSLRAEDTAVYYCAREAASSSGYGMGYFDLWGQGTLVTVSSGGGGSGGGGSGGGGSGGGGSIQMTQSPSSLSASVGDRVTITCQSSQSVYDNNWLAWYQQKPGKAPKLLIYRASNLASGVPSRFSGSGSGTDFTLTISSLQPEDFATYYCQGTYLSSNWYWAFGTGTKVTVLGGGGGSQVQLQESGPGLVKPSETLSLTCKVSGFSFSSGYDMCWIRQPPGKGLEWIGCVVAGSVDITYYASWAKGRVTISVDSSKNQFSLKLSSVTAADTAVYYCARKDAYSDAFNLWGQGTLVTVSS

Key:
[1] = target: T1, CD137 on Jurkat NFkB reporter cells (human, UniProt Q07011 24-255); assay: cell-based or functional assay
[2] = target: T1, CD137 on Jurkat NFkB reporter cells; assay: cell-based or functional assay; remark: listed apart in the source
human PD-L1 on cells [3] = target: T2, human PD-L1 on cells (human, UniProt Q9NZQ7 19-290); assay: cell-based or functional assay
[4] = target: T1, CD137 on Jurkat NFkB reporter cells; assay: cell-based or functional assay; remark: listed apart in the source
[5] = target: T1, CD137 on Jurkat NFkB reporter cells; assay: cell-based or functional assay; remark: listed apart in the source
[6] = target: T1, CD137 on Jurkat NFkB reporter cells; assay: cell-based or functional assay; remark: listed apart in the source
human PD-L1 on cells [7] = target: T2, human PD-L1 on cells; assay: cell-based or functional assay; remark: listed apart in the source
[8] = target: T1, CD137 on Jurkat NFkB reporter cells; assay: cell-based or functional assay; remark: listed apart in the source
[9] = target: T1, CD137 on Jurkat NFkB reporter cells; assay: cell-based or functional assay; remark: listed apart in the source
[10] = target: T1, CD137 on Jurkat NFkB reporter cells; assay: cell-based or functional assay; remark: listed apart in the source
human PD-L1 on cells [11] = target: T2, human PD-L1 on cells; assay: cell-based or functional assay; remark: listed apart in the source
human PD-L1 on cells [12] = target: T2, human PD-L1 on cells; assay: cell-based or functional assay; remark: listed apart in the source
[13] = target: human PD-L1-Fc chimeric protein (human); assay: SPR, PD-L1-Fc captured, binder injected

Binder	EC50, NFkB-luciferase reporter, CHO-PD-L1 cells [1]	EC50, NFkB-luciferase reporter, HCC827 cells stimulated with IFNg [2]	EC50, NFkB-luciferase reporter, CHO-PD-L1 cells [4]	EC50, NFkB-luciferase reporter, PD-L1 expressing CHO cells, 24h [5]	EC50, NFkB-luciferase reporter, PD-L1 expressing CHO cells, 24h, + HSA [5]	EC50, NFkB-luciferase reporter, HCC827 cells without IFNg [6]	IC50, NFAT-luciferase reporter gene assay (human PD-L1 on cells [7])	EC50, NFkB-luciferase reporter, HCC827 with IFNy stimulation, 24h [8]	EC50, NFkB-luciferase reporter, HCC827 without IFNy stimulation, 24h [8]	max. activation (%), NF-kB reporter, CHO-PD-L1 [9]	max. activation (%), NF-kB reporter, HCC827 +IFNg [9]	max. activation (%), NF-kB reporter, HCC827 -IFNg [9]	EC50, NFkB-luciferase reporter, PD-L1 expressing CHO cells, 6h [10]	EC50, NFkB-luciferase reporter, PD-L1 expressing CHO cells, 6h, + HSA [10]	EC50 of IL-2 secretion, PBMC stimulated with SEA (human PD-L1 on cells [11])	also measured
B1	0.0117 µg/mL	0.00927 µg/mL and 0.00888 µg/mL and 0.00923 µg/mL	0.00513 µg/mL and 0.00486 µg/mL and 0.0063 µg/mL	0.0138 µg/mL	0.0149 µg/mL	0.0115 µg/mL and 0.0131 µg/mL and 0.013 µg/mL	0.137 µg/mL	0.00751 µg/mL	0.00952 µg/mL	499%	134%	111%	0.00784 µg/mL	0.00792 µg/mL	0.0399 µg/mL	EC50 of IL-2 secretion, PBMC + CHO cells expressing PD-L1 (50000/well), anti-CD3 1 ug/ml (human PD-L1 on cells [3]): 0.0129 µg/mL; EC50 of IL-2 secretion, PBMC + CHO cells expressing PD-L1 (50000/well), anti-CD3 2 ug/ml (human PD-L1 on cells [3]): 0.052 µg/mL; EC50 of IL-2 secretion, PBMC + CHO cells expressing PD-L1 (100000/well), anti-CD3 1 ug/ml (human PD-L1 on cells [3]): 0.0862 µg/mL; EC50 of IL-2 secretion, PBMC + CHO cells expressing PD-L1 (100000/well), anti-CD3 2 ug/ml (human PD-L1 on cells [3]): 0.0419 µg/mL; EC50 of IL-2 secretion, PBMC + CHO cells expressing PD-L1 (200000/well), anti-CD3 1 ug/ml (human PD-L1 on cells [3]): 0.0806 µg/mL; EC50 of IL-2 secretion, PBMC + CHO cells expressing PD-L1 (200000/well), anti-CD3 2 ug/ml (human PD-L1 on cells [3]): 0.0301 µg/mL
B2		0.00483 µg/mL	0.00368 µg/mL			0.00562 µg/mL				229%	188%	113%				
B3		0.00548 µg/mL	0.006 µg/mL			0.00697 µg/mL				242%	208%	135%				IC50, NFAT-luciferase reporter gene assay (human PD-L1 on cells [12]): 0.0481 µg/mL; fold improvement of neutralization potency against PRO885, NFAT reporter (human PD-L1 on cells [12]): 3 fold
B4							0.0111 µg/mL								0.0409 µg/mL	fold higher potency on VH4 framework than on VH1 framework (PRO1013), NFAT reporter (human PD-L1 on cells [12]): ~2 fold; fold higher affinity against the STR graft of clone 33-03-G02 (PRO1126) [13]: ~2 fold
B5	0.0791 µg/mL	0.114 µg/mL and 0.145 µg/mL and 0.108 µg/mL	0.0795 µg/mL and 0.104 µg/mL and 0.0865 µg/mL	0.0466 µg/mL	0.0782 µg/mL	0.212 µg/mL and 0.11 µg/mL and 0.112 µg/mL		0.0528 µg/mL	0.0475 µg/mL				0.0565 µg/mL	0.0777 µg/mL		
B6	0.0337 µg/mL						0.0885 µg/mL			432%						

— EP3470426A1 (Numab Therapeutics AG, dated 2019)
